This experiment has as its target T1, recombinant human IGF-1R-his (human, UniProt P08069 31-932).
T1 construct: Recombinant his-tagged protein; also called hIGF-1R-his; hIGF1R-his; not shown: his tag
Description: ELISA, coated hIGF-1R-his. As to the method: The binding activity of the nanobody-Fc fusion proteins obtained after two rounds of mutant construction with the antigen proteins (recombinant human IGF-1R-His) was detected by an ELISA method: 2 μg/mL recombinant human IGF1R-His antigen proteins were added to a 96-well ELISA plate, at 30 μL/well, for coating overnight at 4° C. The plate was washed three times with PBST. PBS containing 5% skim milk powder was added for blocking at room temperature for 2 h. The plate was washed three times with PBST. The nanobody-Fc fusion proteins were serially diluted 3-fold, and the nanobody-Fc fusion proteins of different concentrations were added to each well at 30 μL/well and incubated at room temperature for 1 h. The plate was washed three times with PBST, and horseradish peroxidase-labeled anti-human Fc antibodies were added at 30 μL/well and incubated at room temperature for 50 min. The plate was washed three times with PBST. TMB substrate solution was added at 30 μL/well for color development in the dark for 1-5 min, 30 μL of 2 M hydrochloric acid was added to terminate the reaction, and the OD₄₅₀ was read using a microplate reader. Curve fitting was conducted and the EC₅₀ value was calculated using Graphpad Prism software.
(In general: ELISA stands for enzyme-linked immunosorbent assay.)

Where a chain is given by its changes, count along the chain named.

T1 sequence (P08069 31-932 limits assumed): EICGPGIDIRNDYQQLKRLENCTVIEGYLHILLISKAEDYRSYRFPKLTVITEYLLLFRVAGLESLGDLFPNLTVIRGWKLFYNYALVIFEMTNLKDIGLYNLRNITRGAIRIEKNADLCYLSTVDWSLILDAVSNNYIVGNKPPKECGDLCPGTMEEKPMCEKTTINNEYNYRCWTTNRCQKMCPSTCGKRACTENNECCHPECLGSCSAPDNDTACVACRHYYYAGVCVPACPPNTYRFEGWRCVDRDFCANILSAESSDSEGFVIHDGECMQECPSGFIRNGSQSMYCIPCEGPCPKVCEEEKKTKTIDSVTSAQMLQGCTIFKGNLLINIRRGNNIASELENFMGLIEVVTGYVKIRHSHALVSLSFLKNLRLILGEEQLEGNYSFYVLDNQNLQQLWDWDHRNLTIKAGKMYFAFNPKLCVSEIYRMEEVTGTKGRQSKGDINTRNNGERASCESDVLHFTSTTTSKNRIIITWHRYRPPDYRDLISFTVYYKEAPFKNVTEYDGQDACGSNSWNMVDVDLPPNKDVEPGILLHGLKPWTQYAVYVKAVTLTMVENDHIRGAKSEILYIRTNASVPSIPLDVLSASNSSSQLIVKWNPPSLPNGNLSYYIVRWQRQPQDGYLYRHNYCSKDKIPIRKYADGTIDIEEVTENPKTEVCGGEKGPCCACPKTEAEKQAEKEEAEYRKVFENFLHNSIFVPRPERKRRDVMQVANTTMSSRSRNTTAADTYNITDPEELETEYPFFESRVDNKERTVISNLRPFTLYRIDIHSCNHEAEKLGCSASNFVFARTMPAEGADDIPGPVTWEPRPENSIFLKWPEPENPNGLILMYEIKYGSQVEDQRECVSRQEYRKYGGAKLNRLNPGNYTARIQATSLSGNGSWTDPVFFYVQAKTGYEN

B1: 5115-H1-M1-Fc (Fc fusion)
chain: EVQLVESGGGLVQPGGSLRLSCAASGRTFSSFVMSWFRQAPGKEREFVSAISGSGSRSRYADSVKGRFTISRDNSKNTLYLQMNSLRAEDTAVYYCAANPRRATPDYTQYAYWGQGTLVTVSS
notes: VHH-Fc; Fc not specified; not shown: Fc
What is called EC50 is the concentration at which the effect is half-maximal. For B1, the EC50 came out at 1.22 ng/mL.

B2: 5115-H4-M3-Fc (Fc fusion)
chain: B1 chain with S35A, E44G, R45L, S58A
notes: as for B1
For B2, the EC50 stood at 0.33 nM.

B3: 5115-H1-M30-Fc (Fc fusion)
chain: B1 chain with R27A, T28R, S58H
notes: as for B1
For B3, the EC50 turned out to be 2.45 ng/mL.

B4: 5115-H4-M25-Fc (Fc fusion)
chain: B1 chain with R27V, E44G, R45L, S58A, R59L, Y107L
notes: as for B1
Take B4: the EC50 was 0.215 nM.

B5: 5115-H4-M34-1-Fc (Fc fusion)
chain: B1 chain with S30N, S31R, S35A, E44G, R45L, S56Q, S58A, Y107L
notes: as for B1
Turning to B5, the EC50 came out at 3.92 ng/mL.

B6: 5115-H1-M36-Fc (Fc fusion)
chain: B1 chain with S30P, S58A, R59Y, Y107L, T108R
notes: as for B1
As to B6, the EC50 is 1.43 ng/mL.

B7: 5115-H1-M21-Fc (Fc fusion)
chain: B1 chain with R27K, S58T
notes: as for B1
As to B7, the EC50 was 3.35 ng/mL.

B8: 5115-H1-M40-Fc (Fc fusion)
chain: B1 chain with S58Q, Y107L, T108R
notes: as for B1
As to B8, the EC50 turned out to be 1.23 ng/mL.

B9: 5115-H1-M25-Fc (Fc fusion)
chain: B1 chain with T28F, S58A, T108S
notes: as for B1
Turning to B9, the EC50 stood at 1.33 ng/mL.

B10: 5115-H1-M39-Fc (Fc fusion)
chain: B1 chain with S58F, Y107L, T108Q
notes: as for B1
Regarding B10, the EC50 came out at 1.06 ng/mL.

B11: 5115-H1-M6-Fc (Fc fusion)
chain: B1 chain with T28E, S35A, E44G, R45L, S58A, Y107L, Q109S
notes: as for B1
In the case of B11, the EC50 came to 2.62 ng/mL.

B12: 5115-H1-M16-Fc (Fc fusion)
chain: B1 chain with G26H, S58A, Y107L
notes: as for B1
As for B12, the EC50 was found to be 3.61 ng/mL.

B13: 5115-H1-M26-Fc (Fc fusion)
chain: B1 chain with S58Y, R59T, Y107L, T108M
notes: as for B1
For B13, the EC50 worked out at 1.52 ng/mL.

B14: 5115-H1-M22-Fc (Fc fusion)
chain: B1 chain with Y107L, T108L
notes: as for B1
For the molecule B14, the EC50 was found to be 1.79 ng/mL.

B15: 5115-H1-M9-Fc (Fc fusion)
chain: B1 chain with S58L, Y107L, T108L
notes: as for B1
As to B15, the EC50 came out at 2.3 ng/mL.

B16: 5115-H1-M35-Fc (Fc fusion)
chain: B1 chain with S58A, R59L, Y107L, T108R
notes: as for B1
As for B16, the EC50 was determined as 1.47 ng/mL.

B17: 5115-H1-M27-Fc (Fc fusion)
chain: B1 chain with F29L, S35A, E44G, R45L, S56L, S58A, R102Y, Y107L
notes: as for B1
With B17, the EC50 was 1.79 ng/mL.

B18: 5115-H1-M5-Fc (Fc fusion)
chain: B1 chain with T28Y, S35A, E44G, R45L, S56L, S58A, Y107L, Q109S
notes: as for B1
On to B18, for which the EC50 worked out at 5.88 ng/mL.

B19: 5115-H1-M15-Fc (Fc fusion)
chain: B1 chain with S58M, Y107L, T108R
notes: as for B1
Turning to B19, the EC50 came out at 2.67 ng/mL.

B20: 5115-H1-M20-Fc (Fc fusion)
chain: B1 chain with S30R, S58Y
notes: as for B1
On to B20, for which the EC50 was 2.21 ng/mL.

B21: 5115-H1-M7-Fc (Fc fusion)
chain: B1 chain with S54R, S58A, R59Y, Y107L, T108R
notes: as for B1
Regarding B21, the EC50 is 3.04 ng/mL.

B22: 5115-H1-M24-Fc (Fc fusion)
chain: B1 chain with S31G, S35A, E44G, R45L, S54T, S58A, Y107L
notes: as for B1
Take B22: the EC50 is 1.83 ng/mL.

B23: 5115-H4-M28-Fc (Fc fusion)
chain: B1 chain with E44G, R45L, S54G, S58A, R59Y, T69A, Y107L, T108R
notes: as for B1
For the molecule B23, the EC50 was 0.299 nM.

B24: 5115-H1-M2-Fc (Fc fusion)
chain: B1 chain with S58A, Y107L, T108L
notes: as for B1
Take B24: the EC50 is 1.5 ng/mL.

B25: 5115-H1-M23-Fc (Fc fusion)
chain: B1 chain with S30K, S58A, Y107M
notes: as for B1
Regarding B25, the EC50 is 1.74 ng/mL.

B26: 5115-H1-M11-Fc (Fc fusion)
chain: B1 chain with R27I, T28R, S58H
notes: as for B1
For B26, the EC50 came out at 2.51 ng/mL.

B27: 5115-H1-M33-Fc (Fc fusion)
chain: B1 chain with G26M, R27P
notes: as for B1
In the case of B27, the EC50 was 1.15 ng/mL.

B28: 5115-H4-M34-3-Fc (Fc fusion)
chain: B1 chain with R27G, S35A, E44G, R45L, S58A, Y107L, A111K
notes: as for B1
With B28, the EC50 stood at 3.64 ng/mL.

B29: 5115-H1-M28-Fc (Fc fusion)
chain: B1 chain with S58Y, Y107L, T108K
notes: as for B1
In the case of B29, the concentration for a half-maximal effect (EC50) was 1.18 ng/mL.

B30: 5115-H1-M13-Fc (Fc fusion)
chain: B1 chain with G26L, R27G, S58A
notes: as for B1
Take B30: the EC50 stood at 2.9 ng/mL.

B31: 5115-H1-M18-Fc (Fc fusion)
chain: B1 chain with T28R, S58A, Y107L
notes: as for B1
For B31, the EC50 was found to be 2.89 ng/mL.

B32: 5115-H1-M29-Fc (Fc fusion)
chain: B1 chain with S58A, R59Y, Y107L, T108R
notes: as for B1
As to B32, the concentration giving a half-maximal response (EC50) was determined as 1.62 ng/mL.

B33: 5115-H4-M34-5-Fc (Fc fusion)
chain: B1 chain with G26M, R27T, S35A, E44G, R45L, S54H, S58A, Y107L
notes: as for B1
Regarding B33, the EC50 turned out to be 2.15 ng/mL.

B34: 5115-H1-M8-Fc (Fc fusion)
chain: B1 chain with S58Q, Y107L, T108S
notes: as for B1
As to B34, the EC50 came out at 2 ng/mL.

B35: 5115-H1-M19-Fc (Fc fusion)
chain: B1 chain with S58M, Y107L, T108H
notes: as for B1
As to B35, the EC50 was determined as 1.93 ng/mL.

B36: 5115-H1-M34-Fc (Fc fusion)
chain: B1 chain with S58M, Y107M, T108R
notes: as for B1
On to B36, for which the EC50 was 2.05 ng/mL.

B37: 5115-H1-M12-Fc (Fc fusion)
chain: B1 chain with S58A, Y107L, T108R
notes: as for B1
Regarding B37, the EC50 came out at 1.41 ng/mL.

B38: 5115-H4-M34-4-Fc (Fc fusion)
chain: B1 chain with R27G, S35A, E44G, R45L, S54F, S58A, Y107L
notes: as for B1
Consider B38, for which the EC50 amounted to 6.24 ng/mL.

B39: 5115-H1-M4-Fc (Fc fusion)
chain: B1 chain with T28F, S58F
notes: as for B1
For the molecule B39, the EC50 stood at 1.94 ng/mL.

B40: 5115-H1-M14-Fc (Fc fusion)
chain: B1 chain with S58M, Y107L
notes: as for B1
Regarding B40, the EC50 was 4.31 ng/mL.

B41: 5115-H1-M32-Fc (Fc fusion)
chain: B1 chain with T28A, F29R, S58V
notes: as for B1
Take B41: the EC50 was 1.58 ng/mL.

B42: 5115-H1-M31-Fc (Fc fusion)
chain: B1 chain with S58A, Y107M, T108R
notes: as for B1
For B42, the EC50 came out at 1.84 ng/mL.
